Data published in US20250250357A1 (NANJING ZAIMING PHARMACEUTICAL, published 2025).

Legend:
[1] = target: T1, human MSLN-FL-his protein (human, UniProt Q13421 296-580); test: ELISA on coated antigen, antibody 1 nM
T1 construct: Made in HEK293E cells, purified on nickel column; it is put last here; also called human MSLN full-length protein; hMSLN-FL-his; not shown: His tag

[2] = target: T1, human MSLN-FL-his protein; test: ELISA on coated antigen, antibody 10 nM
Description: (§1) The plate was sealed with a plastic film and incubated at 4° C. overnight. The next day, the plate was washed twice with PBST, and a blocking buffer [PBS+2% (w/w) BSA] was added for blocking at room temperature for 2 h. The blocking buffer was discarded, and a chimeric antibody or negative control antibody serially diluted from 100 nM was added at 50 μL/well. After incubation at 37° C. for 2 h, the plate was washed 3 times with PBST. […] After incubation at 37° C. for 2 h, the plate was washed 5 times with PBST. A TMB substrate was added at 50 μL/well for incubation at room temperature for 5-10 min, and then a stop solution (1.0 N HCl) was added at 50 μL/well.

[3] = target: T1, human MSLN-FL-his protein; test: ELISA on coated antigen, antibody 0.1 nM
Description: as §1

[4] = target: T1, human MSLN-FL-his protein; test: ELISA on coated antigen, antibody 100 nM
Description: as §1

[5] = target: T1, human MSLN-FL-his protein; test: ELISA on coated antigen, antibody 0.01 nM
Description: as §1

[6] = target: T1, human MSLN-FL-his protein; test: ELISA on coated antigen, antibody 0.001 nM
Description: as §1

[7] = target: T1, human MSLN-FL-his protein; test: ELISA on coated antigen, antibody 0.0001 nM
Description: as §1

[8] = target: T1, human MSLN-FL-his protein; test: ELISA on coated antigen, no antibody (blank, column 'none')
Description: as §1

T1 sequence (Q13421 other isoform, or with tags, fused parts or gaps): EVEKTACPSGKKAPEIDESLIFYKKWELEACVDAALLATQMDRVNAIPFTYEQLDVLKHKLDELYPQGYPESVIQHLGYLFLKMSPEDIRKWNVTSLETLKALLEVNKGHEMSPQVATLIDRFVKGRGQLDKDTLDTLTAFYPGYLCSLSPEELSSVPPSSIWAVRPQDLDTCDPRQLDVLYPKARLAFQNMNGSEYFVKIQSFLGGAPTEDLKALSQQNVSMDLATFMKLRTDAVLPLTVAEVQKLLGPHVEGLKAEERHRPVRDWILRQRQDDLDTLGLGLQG

OD450 [1] | OD450 [2] | OD450 [3] | OD450 [4] | OD450 [5] | OD450 [6] | OD450 [7] | OD450 [8] | Binder
2.9 OD | 3.2 OD | 1.71 OD | 3.07 OD | 0.48 OD | 0.13 OD | 0.07 OD | 0.18 OD | S009-F8-29.1 (antibody, human IgG1, kappa, V domains shown, Human-murine chimeric antibody, human IgG1 heavy and kappa light constant regions) VH: QVQLQQSGAELARPGASVKMSCKASGYTFISYTMHWVKQRPGQGLEWIGYINPSSGYTKYNQKFKDKATLTADKSSSTAYMQLNSLTSEDSAVYYCARYYSNPDYYAMDYWGQGTSVTVSS VL: QIVLTQSPAIMSASPGEKVTITCSASSSVSYMHWFQQKPGTSPKLWIYSTSNLASGVPARFSGSGSGTSYSLTISRMEAEDAATYYCQQRSSYPLTFGGGTKLELKR
2.23 OD | 2.37 OD | 1.34 OD | 2.5 OD | 0.31 OD | 0.08 OD | 0.05 OD | 0.04 OD | S009-F8-27.1 (antibody, human IgG1, kappa, V domains shown, Human-murine chimeric antibody, human IgG1 heavy and kappa light constant regions) VH: EVQLVESGGGLVKPGGSLKLSCAASGFTFSSYAMSWVRQTPEKRLEWVATISDGGNYTYYPDNVKGRFTISRDNAKNNLYLQMSHLKSEDTAMYYCAGDRGYPYAMDSWGQGTSVTVSS VL: NIMMTQSPSSLAVSAGEKVTMSCKSSQSVLYSSNQKNYLAWYQQKPGQSPKLLIYWASTRESGVPDRFTGSGSGTDFTLTISNVHAEDLAVYYCHQYLSSLTFGAGTKLELKR
2.63 OD | 3.13 OD | 1.04 OD | 3 OD | 0.24 OD | 0.08 OD | 0.05 OD | 0.05 OD | S009-F8-28.23 (antibody, human IgG1, kappa, V domains shown, Human-murine chimeric antibody, human IgG1 heavy and kappa light constant regions) VH: EVQLVESGGDLVKPGGSLKLSCAASGFTFSSYAMSWVRQTPEKRLEWVATISDGGSYTYYPDNVEGRFTISRDNAKNNLYLQMSHLKSEDTAMYYCAGDRGYSYALDYWGQGTSVTVSS VL: NIMMTQSPSSLAVSAGEKVTMSCKSSQSVLYSSNQKNYLAWYQQKPGQSPKLLIYWASTRESGVPDRFTGSGSGTDFTLTISSVQAEDLAVYYCHQYLSSLTFGAGTKLELKR
2.57 OD | 2.92 OD | 1.61 OD | 2.95 OD | 0.43 OD | 0.11 OD | 0.05 OD | 0.06 OD | S009-F8-33.12 (antibody, human IgG1, kappa, V domains shown, Human-murine chimeric antibody, human IgG1 heavy and kappa light constant regions) VH: EVQLQQSGAELVKPGASVKLSCTASAFNIKDYYMHWVKQRTEQGLEWIGRIDPEDGETKYAPKFQGKATITADTSSNTAYLQLSSLTSEDTAVYYCASGSGTGAMDYWGQGTSVTVSS VL: DIVMTQSQKFMSTSVGDRVSITCKASQNVRTAVGWYQQKPGQSPKALIYLASNRHTGVPDRFTGSGSGTDFTLTISNVQSEDLADYFCLQHWNSPYTFGGGTKLVIKR
2.53 OD | 2.56 OD | 2.19 OD | 2.66 OD | 0.85 OD | 0.2 OD | 0.08 OD | 0.08 OD | S009-F8-31.22 (antibody, human IgG1, kappa, V domains shown, Human-murine chimeric antibody, human IgG1 heavy and kappa light constant regions) VH: EVQLVESGGDLVKPGGSLKLSCAASGFTFSTYGMSWVRQTPDKRLEWVATISSGGSYTYYPDSLKGRFTISRDNAKNTLYLQMSSLKSEDTAMYYCARHEGYYYGKDYWGQGTTLTVSS VL: DIVLTQSPATLSVTPGDSVSLSCRASHSISNNLHWYQQKSHESPRLLIKYASQSISGIPSKFSGSGSGTDFTLSINSVETEDFGMYFCQQTNSWPLTFGAGTKLELKR
2.64 OD | 2.85 OD | 1.63 OD | 3.03 OD | 0.48 OD | 0.11 OD | 0.07 OD | 0.04 OD | S009-F8-32.3 (antibody, human IgG1, kappa, V domains shown, Human-murine chimeric antibody, human IgG1 heavy and kappa light constant regions) VH: QVQLKESGPGLVAPSQSLSITCTVSGFSLSSYAISWVRQPPGKGLEWLGVIWTGGGTNYNSALKSRLSISKDNSKSQVFLKMNSLQTDDTARFYCARNNYGRLDYAMDYWGQGTSVTVSS VL: DVVMTQTPLSLPVSLGDQASISCRSSQSLVHGNGNTYLHWYLQKPGQSPKLLIYKVSNRFSGVPDRFSGSGSGTDFTLKISRVETEDLGVYFCSQSTHVPFTFGSGTKLEIKR
